This note sets out measurements from article PMC8857485, “Prostate secretory protein 94 inhibits sterol binding and export by the mammalian CAP protein CRISP2 in a calcium-sensitive manner” (The Journal of Biological Chemistry, 2022).

Assay [1] has as its target T1, CRISP2 Y99P, His-tagged (human, UniProt P16562 22-243, Y99P, RED-tris-NTA fluorescent label on the His tag).
T1 construct: CRISP2 with the point mutation Y99P in the β2-strand; Same construct as m4 with the mutation; source: E. coli, purified; not shown: polyhistidine, C-terminal, kept
T1 sequence (looked up): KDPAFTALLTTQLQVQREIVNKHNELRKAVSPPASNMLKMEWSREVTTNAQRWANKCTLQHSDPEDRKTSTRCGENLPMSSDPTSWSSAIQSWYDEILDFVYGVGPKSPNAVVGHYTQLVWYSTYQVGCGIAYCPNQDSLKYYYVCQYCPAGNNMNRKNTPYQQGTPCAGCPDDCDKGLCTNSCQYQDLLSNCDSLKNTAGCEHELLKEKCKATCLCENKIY
Nature of the assay: MST; 100 nM CAP protein labelled with RED-tris-NTA on its His tag, serial dilution of unlabeled PSP94 or PSP94^F24G; 20 mM Tris pH 7.5, 30 mM NaCl, 0.05% Triton X-100; Monolith NT.115, 80% laser power; triplicates. As to conditions: both partners purified.

For assay [2], the target named is T2, CRISP2 L98G, His-tagged (human, UniProt P16562 22-243, L98G, RED-tris-NTA fluorescent label on the His tag).
T2 construct: CRISP2 with the point mutation L98G in the β2-strand; Same construct as m4 with the mutation; source: E. coli, purified; not shown: polyhistidine, C-terminal, kept
T2 sequence (looked up): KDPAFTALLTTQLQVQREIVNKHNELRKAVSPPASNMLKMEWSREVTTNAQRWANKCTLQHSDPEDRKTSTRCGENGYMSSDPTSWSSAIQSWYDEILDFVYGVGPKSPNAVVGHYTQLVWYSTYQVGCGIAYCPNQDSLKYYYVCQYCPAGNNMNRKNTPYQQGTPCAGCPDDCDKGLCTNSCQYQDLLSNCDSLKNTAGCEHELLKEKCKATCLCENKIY
Described as above. To be noted: both partners purified.

Assay [3] has as its target T3, CRISP3 (cysteine-rich secretory protein 3), C-terminal polyhistidine tag (human, UniProt P54108 21-245, RED-tris-NTA fluorescent label on the His tag).
T3 construct: CRISP3, human; pET22b; source: E. coli, inclusion bodies, purified under denaturing conditions, renatured (nickel-NTA); not shown: polyhistidine, C-terminal, kept
T3 sequence (looked up): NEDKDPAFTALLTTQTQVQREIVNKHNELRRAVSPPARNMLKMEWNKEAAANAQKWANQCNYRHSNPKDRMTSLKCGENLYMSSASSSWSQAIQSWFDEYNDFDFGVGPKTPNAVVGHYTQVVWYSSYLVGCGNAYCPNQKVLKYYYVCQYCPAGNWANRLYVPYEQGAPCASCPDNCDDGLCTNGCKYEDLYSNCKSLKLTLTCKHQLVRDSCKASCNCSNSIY
Described as above. As to conditions: both partners purified.

Assay [4] concerns the target T4, Pry1 (pathogen related in yeast 1), C-terminal polyhistidine tag (S. cerevisiae, UniProt P47032 20-299, RED-tris-NTA fluorescent label on the His tag).
T4 construct: Pry1, S. cerevisiae CAP family member; source: E. coli BL21, purified (nickel-NTA); not shown: polyhistidine, C-terminal, kept
T4 sequence (looked up): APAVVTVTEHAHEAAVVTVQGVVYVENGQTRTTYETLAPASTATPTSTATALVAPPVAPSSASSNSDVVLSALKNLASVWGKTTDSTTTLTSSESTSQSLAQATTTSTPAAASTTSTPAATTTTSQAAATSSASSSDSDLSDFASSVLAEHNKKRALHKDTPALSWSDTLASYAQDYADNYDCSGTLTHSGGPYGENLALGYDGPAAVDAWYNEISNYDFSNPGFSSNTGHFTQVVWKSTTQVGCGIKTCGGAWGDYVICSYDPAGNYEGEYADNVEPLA
The description is as above. As to conditions: both partners purified.

Assay [5] concerns the target T5, CRISP2 (cysteine-rich secretory protein 2), C-terminal polyhistidine tag (human, UniProt P16562 22-243, RED-tris-NTA fluorescent label on the His tag).
T5 construct: also called Tpx-1; testis-specific protein 1; source: E. coli BL21, purified (nickel-NTA); not shown: polyhistidine, C-terminal, kept
T5 sequence (looked up): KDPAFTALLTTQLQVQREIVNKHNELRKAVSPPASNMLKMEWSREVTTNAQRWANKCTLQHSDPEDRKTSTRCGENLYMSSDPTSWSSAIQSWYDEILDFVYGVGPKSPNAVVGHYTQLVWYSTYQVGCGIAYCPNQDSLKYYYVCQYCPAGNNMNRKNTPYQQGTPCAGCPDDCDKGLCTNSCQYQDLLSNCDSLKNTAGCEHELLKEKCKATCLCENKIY
The description is as above. As to conditions: both partners purified.

Assay [6] addresses T6, CRISP2 N97P, His-tagged (human, UniProt P16562 22-243, N97P, RED-tris-NTA fluorescent label on the His tag).
T6 construct: CRISP2 with the point mutation N97P in the β2-strand; Same construct as m4 with the mutation; source: E. coli, purified; not shown: polyhistidine, C-terminal, kept
T6 sequence (looked up): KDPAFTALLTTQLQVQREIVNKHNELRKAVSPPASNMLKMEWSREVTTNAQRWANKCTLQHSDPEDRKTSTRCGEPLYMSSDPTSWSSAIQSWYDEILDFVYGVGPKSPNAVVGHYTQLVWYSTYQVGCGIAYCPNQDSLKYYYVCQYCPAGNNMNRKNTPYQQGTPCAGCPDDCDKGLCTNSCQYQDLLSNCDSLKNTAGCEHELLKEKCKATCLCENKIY
Described as above. As to conditions: both partners purified.

Assay [7] addresses T7, CRISP2 L98G, His-tagged (human, UniProt P16562 22-243, L98G, RED-tris-NTA fluorescent label on the His tag).
T7 sequence: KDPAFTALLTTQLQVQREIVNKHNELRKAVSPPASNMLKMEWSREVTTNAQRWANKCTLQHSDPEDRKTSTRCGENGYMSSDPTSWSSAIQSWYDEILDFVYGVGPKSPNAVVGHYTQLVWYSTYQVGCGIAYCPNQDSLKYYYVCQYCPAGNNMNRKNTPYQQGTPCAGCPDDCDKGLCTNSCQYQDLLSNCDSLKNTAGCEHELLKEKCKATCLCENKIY
Nature of the assay: MST.

The target of assay [8] is T8, CRISP2 Y99P, His-tagged (human, UniProt P16562 22-243, Y99P, RED-tris-NTA fluorescent label on the His tag).
T8 sequence: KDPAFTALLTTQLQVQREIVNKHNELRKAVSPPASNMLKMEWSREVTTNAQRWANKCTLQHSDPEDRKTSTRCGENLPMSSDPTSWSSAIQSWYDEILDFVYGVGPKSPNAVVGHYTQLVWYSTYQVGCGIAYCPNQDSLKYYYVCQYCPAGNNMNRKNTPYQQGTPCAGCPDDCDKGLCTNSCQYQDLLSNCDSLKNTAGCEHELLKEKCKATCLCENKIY
Nature of the assay: MST.

For assay [9], the target named is T9, CRISP2 N97P, His-tagged (human, UniProt P16562 22-243, N97P, RED-tris-NTA fluorescent label on the His tag).
T9 sequence: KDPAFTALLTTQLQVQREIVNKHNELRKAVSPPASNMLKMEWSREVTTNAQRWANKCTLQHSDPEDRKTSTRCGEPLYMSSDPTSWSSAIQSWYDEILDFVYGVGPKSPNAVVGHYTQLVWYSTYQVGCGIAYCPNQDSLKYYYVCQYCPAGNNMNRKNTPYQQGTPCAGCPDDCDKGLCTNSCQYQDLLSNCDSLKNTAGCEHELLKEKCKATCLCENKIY
Briefly: MST.

Assay [10] deals with fatty acid export by CAP family members (CRISP2). Nature of the assay: Fatty acid export assay in yeast. As to conditions: co-expression with CRISP2 in faa1Δ faa4Δ pry1Δ pry3Δ yeast. Format: cell-based, Saccharomyces cerevisiae. From the text: We and others have previously shown that CAP proteins can bind eicosanoids and free fatty acids at a second lipid-binding site that is independent of the sterol-binding site ([30], [31]). To test whether PSP94 affects fatty acid binding by the CAP domain, we examined whether coexpression of PSP94 with CRISP2 affects fatty acid export from mutant cells lacking the two acyl-CoA synthases Faa1 and Faa4 and two of the three yeast CAP domain proteins, Pry1 and Pry3.
To analyze the CRISP2-dependent export of fatty acids, cells were grown overnight and the supernatant of 5 A600nm units of yeast cells was collected and dried in a freeze dryer. Fatty acid methyl esters (FAMEs) were produced by incubating the dried fractions at 85 °C for 45 min in 1 ml of methanol–sulfuric acid (5% v/v) supplemented with butylated hydroxytoluene (0.01% w/v). The FAMEs were extracted in a mixture containing 1.5 ml of NaCl (0.9% w/v) and 2 ml of hexane, and the upper phase was collected. FAMEs were then resuspended in heptane and separated on an Agilent 7890A gas chromatograph equipped with a DB-23 capillary column (30 m × 0.25 mm × 0.25 μm) (Agilent Technologies) and quantified relative to an internal standard (C17:0, 10 μg) as described ([31]).

The target of assay [11] is T10, CRISP2^N97P L98G (Homo sapiens, UniProt P16562, L98G/N97P).
T10 construct: made in house; host or cells: E. coli
T10 sequence (P16562 22-243 N97P/L98G): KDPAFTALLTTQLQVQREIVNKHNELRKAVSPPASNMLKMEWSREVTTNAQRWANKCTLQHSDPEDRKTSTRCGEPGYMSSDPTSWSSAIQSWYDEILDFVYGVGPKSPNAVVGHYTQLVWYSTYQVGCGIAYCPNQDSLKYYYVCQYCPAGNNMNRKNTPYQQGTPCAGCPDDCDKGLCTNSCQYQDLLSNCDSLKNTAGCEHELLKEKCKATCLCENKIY
Briefly: MST binding to CRISP2 double mutant N97P L98G. On the set-up: species or system mammalian. As to conditions: read-out: Kd, protein-protein interaction with CRISP2^N97P L98G. As to the method:
Next, we generated all three double mutant combinations of CRISP2: N97P L98G, N97P Y99P, and L98G Y99P. These three double mutant versions of CRISP2 were again expressed as His-tagged proteins in E. coli and purified, and their capacity to bind sterols in the presence or absence of PSP94 was assessed by MST. […] The capacity of the CRISP2^L98G Y99P double mutant to bind sterols even in the presence of PSP94 was confirmed by the in vivo sterol export assay (Fig. 6, A and B). When expressed in yeast cells, the CRISP2^L98G Y99P double mutant was stably expressed and secreted as monitored by Western blotting (Fig. 6C).
MST experiments were performed to assess protein–protein, protein–lipid, and protein–calcium interactions using a Monolith NT.115 (Nanotemper Technologies). Proteins were labeled using the RED-tris-NTA His tag protein labeling kit. Labeled CAP proteins, 100 nM, were mixed with a serial dilution of unlabeled PSP94, PSP9^F24G, cholesterol sulfate, or calcium chloride, prepared in binding buffer (20 mM Tris pH 7.5, 30 mM NaCl, 0.05% Triton X-100). Samples were loaded into MST standard capillaries, and MST measurements were performed using an 80% laser power setting. The dissociation constant Kd was obtained by plotting the normalized fluorescence (Fnorm) against the logarithm of ligand concentration. […]

B1: prostate secretory protein of 94 amino acids (PSP94), C-terminal polyhistidine tag (natural protein, human, UniProt P08118 21-114, looked up)
chain: SCYFIPNEGVPGDSTRKCMDLKGNKHPINSEWQTDNCETCTCYETEISCCTLVSTPVGYDKDNCQRIFKKEDCKYIVVEKKDPKKTCSVSEWII
notes: PSP94 (β-microseminoprotein), human; also called β-microseminoprotein; MSP; source: E. coli BL21, purified (nickel-NTA)
Broadly, the Kd is a measure of binding affinity in units of concentration. As to B1, the binding result in [1], in assay [2], in [3] and in assay [6] was “binds” each time. For the same molecule, the equilibrium dissociation constant (Kd) in assay [4] turned out to be 70 nM; in [5], 6 nM; in [7], 8.6 nM; in [8] it was 9.3 nM; in assay [9], 8.1 nM.

B2: PSP94: prostate secretory protein of 94 amino acids, His-tagged, purified from E. coli; or expressed in yeast (protein)
chain: SCYFIPNEGVPGDSTRKCMDLKGNKHPINSEWQTDNCETCTCYETEISCCTLVSTPVGYDKDNCQRIFKKEDCKYIVVEKKDPKKTCSVSEWII
modifications: left off: polyhistidine, C-terminal, state not stated
notes: prostate secretory protein of 94 amino acids, His-tagged, purified from E. coli; or expressed in yeast
As for B2, the “effect on fatty acid export” value in [10] was “does not affect fatty acid binding and export”. For the same molecule, the Kd in assay [11] was determined as 4 ± 1.8 nM.
